Laboratory results published in patent US7105484 (Genentech, dated 2006).

Molecular target: T1, GDNFRα (full length, GPI-linked, expressed on cells) (rat, UniProt Q62997 25-430)
T1 construct: also called GDNF receptor α; recombinant GDNFRα
T1 sequence: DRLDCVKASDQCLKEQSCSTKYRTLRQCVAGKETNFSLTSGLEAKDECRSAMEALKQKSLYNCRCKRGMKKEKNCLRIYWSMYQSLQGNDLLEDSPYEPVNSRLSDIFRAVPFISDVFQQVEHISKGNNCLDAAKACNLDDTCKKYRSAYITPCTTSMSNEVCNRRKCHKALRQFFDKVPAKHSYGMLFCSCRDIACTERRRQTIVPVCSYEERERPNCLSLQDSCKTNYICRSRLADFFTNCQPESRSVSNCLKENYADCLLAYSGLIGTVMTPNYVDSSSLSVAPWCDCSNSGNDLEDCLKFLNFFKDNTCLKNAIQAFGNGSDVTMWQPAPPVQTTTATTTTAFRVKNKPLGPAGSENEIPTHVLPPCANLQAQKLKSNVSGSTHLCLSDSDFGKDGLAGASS
Experiment: competition binding of 50 pM 125I GDNF against cold GDNF on CHO cells stably expressing GDNFRα; Scatchard analysis, IGOR program
Source text: Competition binding experiments further indicate that GDNF binds specifically and reversibly to GDNFRα expressing cells. […] The IGOR program was used to determine K_d.

Kd: ~0.063 nM
B1: GDNF (Glial-cell Derived Neurotrophic Factor) (ligand)
chain: SPDKQMAVLPRRERNRQAAAANPENSRGKGRRGQRGKNRGCVLTAIHLNVTDLGLGYETKEELIFRYCSGSCDAAETTYDKILKNLSRNRRLVSDKVGQACCRPIAFDDDLSFLDDNLVYHILRKHSAKRCGCI
modifications: The tracer form is 125I-iodinated, and the iodinated residues are not stated. Per our card (not shown to me), active GDNF is a disulfide-bonded homodimer; one protomer is given.
